Drawing on publication PMC5708760, this text covers phospho-Akt (S473) by western blot, normalised to GFP-myc, in ErbB2-transfected, serum-starved Hek293T cells treated with 10 ng/mL bacEC for 1 to 60 minutes for one substance.

For this assay, the target named is flag-tagged ErbB2 (Xenopus laevis, wild type) (Xenopus laevis).

In turn, “recombinant EC1-3 (bacEC) (domain or fragment)” showed a phospho-Akt (S473) by western blot, normalised to GFP-myc, in ErbB2-transfected, serum-starved Hek293T cells treated with 10 ng/mL bacEC for 1 to 60 minutes of 20%.
